From patent US9840539B2, “High affinity digoxigenin binding proteins” (UNIVERSITY OF WASHINGTON THROUGH ITS CENTER FOR …, priority 2013, dated 2017)
Numbering of substitutions follows the chain as printed. Names and notes keep the numbering of the source. “Also recorded” adds a separate entry of the source. Read-outs that look alike come from different tables or passages of the source.

B1: DIG10: computationally designed digoxigenin binding polypeptide from scaffold 1z1s, SEQ ID NO: 12 (protein)
chain: MNAKEIVVHSLRLLENGDARGWCDLFHPEGVLEYPYAPPGHKTRFEGRETIWAHMRLFPEYVTVRFTDVQFYETADPDLAIGEFHGDGVHTVSGGKLAADYISVLRTRDGQILLYRVFFNPLRVLEALGGVEAAAKIVQGA
modifications: (130)..(141) amino acids are optionally absent
B2: 1z1s: scaffold, hypothetical protein of unknown function from Pseudomonas aeruginosa, SEQ ID NO: 24 (protein)
chain: B1 chain with V7L, Y34F, H41W, Y61H, V62L, H90A, A99Q, V117D, F119W, V124H
B3: DIG10.2: DIG10.1a variant with A37P and H41Y, SEQ ID NO: 14 (protein)
chain: B1 chain with S10A, A37P, H41Y, V62M, V64I, V117L, A127P
modifications: (130)..(141) amino acids are optionally absent
B4: DIG10.1a: affinity matured DIG10 variant with S10A, V62M, V64I, V117L, A127P; SEQ ID NO: 13 (protein)
chain: B1 chain with S10A, V62M, V64I, V117L, A127P
modifications: (130)..(141) amino acids are optionally absent
B5: DIG5: computationally designed digoxigenin binding polypeptide from scaffold 1z1s, SEQ ID NO: 10 (protein)
chain: MNAKEILVHSLRLLENGDARGWCDLFHPEGVLEFPYAPPGWKTRFEGRETIWAHMRLHPEHVTVRFTDVQFYETADPDLAIGEYHGDGVVTVSGGKYAADFITVLRTRDGQILLYRVFWNPLRALEAAGGVEAAAKIVQGA
modifications: (130)..(141) amino acids are optionally absent

Experiments:
[1] = Yeast surface display flow cytometry binding assay, DIG-BSA-biotin and SAPE; settings: for compensated mean binding (PE) signal on yeast: 2.7 μM DIG-BSA-biotin pre-incubated with SAPE; for binding in presence of unlabeled DIG competitor: DIG-BSA or DIG-RNase label, ˜1 mM unlabeled DIG
Text: (§1) DIG10.1a-derived library DNA was sequenced in paired-end mode on an Illumina MiSeq.
(§2) General experimental methods. Detailed procedures for the syntheses of DIG-BSA-biotin, DIG-RNase-biotin, DIG-PEG3-biotin, and DIG-PEG3-Alexa488, as well as protein expression, purification, and crystallization, cloning, and mutagenesis methods are given in Supplementary Methods. Details about fluorescence polarization binding assays, gel filtration analysis, and protein stability measurements are also provided in Supplementary Methods. Yeast surface display. Designed proteins were tested for binding using yeast-surface display^40. […] DIG binding was assessed by quantifying the phycoerythrin (PE) fluorescence of the displaying yeast population following incubation with DIG-BSA-biotin, DIG-RNase-biotin, or DIG-PEG3-biotin, and streptavidin-phycoerythrin (SAPE). In a typical experiment using DIG-BSA-biotin or DIG-RNase-biotin, cells were resuspended in a premixed solution of PBSF (PBS+1 g/L of BSA) containing a 1:100 dilution of anti-cmyc FITC, […] DIG-BSA-biotin or DIG-RNase biotin, and 664 nM SAPE for 2-4 hr incubation at 4° C. Cellular fluorescence was monitored on an Accuri C6 flow cytometer using a 488 nm laser for excitation and a 575 nm band pass filter for emission. Phycoerythrin fluorescence was compensated to minimize bleed-over contributions from the FITC channel. Competition assays with free digoxigenin were performed as above except that between 750 μM and 1.5 mM of digoxigenin was added to each labeling reaction mixture. Full details are given in Supplementary Methods.
(§3) Yeast surface display assays. Designed proteins were tested for binding using yeast-surface display^23. Designs DIG1-17/pET29FLAG, DigA16/pET29FLAG, and 3hk4/pET29FLAG were subcloned into the NdeI/XhoI cloning sites of pETCON^24. Designs and control proteins in pETCON were transformed into EBY100 cells using lithium acetate and polyethylene glycol^25 with dH2O instead of single stranded carrier DNA and were plated on selective media (C -ura -trp). Freshly transformed cells were inoculated into 1 mL of SDCAA media^23 and grown at 30° C., 200 rpm. After ˜12 hrs, 1e7 cells were collected by centrifugation at 1,700×g for 3 min and resuspended in 1 mL of SGCAA media to induce protein expression. Following induction for 24-48 hrs at 18° C., 4e6 cells were collected by centrifugation, and washed twice by incubation with PBSF (PBS supplemented with […]) for 10 min at room temperature
(§4) DIG binding was assessed by quantifying the phycoerythrin (PE) fluorescence of the displaying yeast population following incubation with DIG-BSA-biotin, DIG-RNase-biotin, or DIG-PEG3-biotin, and streptavidin-phycoerythrin (SAPE; Invitrogen, Carlsbad, Calif.). In a typical experiment using DIG-BSA-biotin or DIG-RNase-biotin. 4e6 cells were resuspended in 50 μL of a premixed solution of PBSF containing a 1:100 dilution of anti-cmyc FITC, 2.66 μM DIG-BSA-biotin or DIG-RNase biotin, and 664 nM SAPE. Following a 2-4 hr incubation at 4° C. in the dark on a rotator, cells were collected by centrifugation at 1,700×g for 3 min and washed with 200 μL of PBSF at 4° C. Cell pellets were resuspended in 200 μL of ice-cold PBSF immediately before use. Cellular fluorescence was monitored on an Accuri C6 flow cytometer using a 488 nm laser for excitation and a 575 nm band pass filter for emission. Phycoerythrin fluorescence was compensated to minimize bleed-over contributions from the FITC fluorescence channel. […]

[2] = Fluorescence polarization equilibrium binding assay with purified protein; settings: for affinity for DIG-PEG3-Alexa488 by fluorescence polarization (in words): purified protein in solution
Method: Proteins were expressed in E. coli Rosetta 2 (DE3) cells with a C-terminal TEV protease cleavable His6 tag for biochemical assays. For crystallographic analysis of DIG10 variants, a 12-amino acid structurally disordered C-terminus deriving from the scaffold protein 1z1s was replaced directly with a His6 tag. Binding affinities were determined by equilibrium fluorescence polarization^30 on a SpectraMax M5e microplate reader by monitoring the anisotropy of DIG-conjugated Alexa488 as a function of protein concentration. Equilibrium fluorescence polarization competition assays were performed by examining the effect of increasing concentrations of unlabeled DIG, digitoxigenin, progesterone, and β-estradiol on the anisotropy of designed protein-DIG-conjugated Alexa488 complex.
Fluorescence polarization binding assays. Fluorescence polarization-based affinity measurements of designs and their evolved variants were performed as described^46 using Alexa488-conjugated DIG (DIG-PEG3-Alexa488). Fluorescence anisotropy (r) was measured in 96-well plate format on a SpectraMax M5e microplate reader (Molecular Devices) with λex=485 nM and λem=538 nM using a 515 nm emission cutoff filter. Fluorescence polarization equilibrium competition binding assays were used to determine the binding affinities of DIG10.3 and its variants for unlabeled digoxigenin, digitoxigenin, progesterone, β-estradiol, and digoxin. The inhibition constant for each protein-ligand interaction, Ki, was calculated from the measured total unlabeled ligand producing 50% binding signal inhibition (I50) and the Kd of the protein-label interaction according to a model accounting for receptor-depletion conditions^46.
Fluorescence polarization equilibrium binding assays. Fluorescence polarization-based affinity measurements of designs and their evolved variants were performed as noted previously^47 using Alexa488-conjugated DIG (DIG-PEG3-Alexa488). In a typical experiment, the concentration of DIG-PEG3-Alexa488 was fixed below the Kd of the interaction being monitored and the effect of increasing concentrations of protein on the fluorescence anisotropy of Alexa488 was determined. Fluorescence anisotropy (r) was measured in 96-well plate format on a SpectraMax M5e microplate reader (Molecular Devices) with λex=485 nM and λem=538 nM using a 515 nm emission cutoff filter. In all experiments, PBS (pH 7.4) was used as the buffer system and the temperature was 25° C. DIG-PEG3-Alexa488 solutions were prepared from a 1 mM stock in DMSO. Equilibrium dissociation constants (Kd) were determined by fitting plots of the anisotropy averaged over a period of 20 to 40 min after reaction initiation versus protein concentration as described previously^47. […]

[3] = Yeast surface display flow cytometry binding assay, DIG-RNase-biotin and SAPE; settings: for compensated mean binding (PE) signal on yeast: 2.7 μM DIG-RNase-biotin pre-incubated with SAPE
Text: as §1, §2, §3, §4

[4] = Circular dichroism spectroscopy, temperature melting; format: physicochemical
Method: Circular dichroism spectroscopy. Circular dichroism spectra were collected on an Aviv 62A DS spectrometer. Samples were prepared in PBS. Fixed-temperature scans were conducted at 25° C. All proteins were stable <°60 C.

Row | Molecule | compensated mean binding (PE) signal on yeast [1] | binding in presence of unlabeled DIG competitor [1] | affinity for DIG-PEG3-Alexa488 by fluorescence polarization (in words) [2] | compensated mean binding (PE) signal on yeast [3] | thermal stability by CD temperature melting ([4]; PBS) | thermal stability by CD temperature melting [4] | increase of binding affinity relative to DIG10 ([2]; after one round of mutagenesis and selections) [fold] | binding (PE) signal, stringent multistep labeling ([3]; 5 pM DIG-RNase, then SAPE) | binding (PE) signal in presence of unlabeled DIG competitor ([3]; 2.7 μM DIG-RNase-biotin, 790 μM unlabeled DIG)
1 | B1 | strong binding signals | reduced to background levels | low to mid micromolar range | strong binding signals | – | – | – | – | –
2 | B2 | does not bind to either label | – | does not bind | does not show a binding signal | stable at temperatures below 60 °C | – | – | – | –
3 | B3 | – | – | – | – | – | stable at temperatures below 60 °C | – | – | –
4 | B4 | – | – | – | – | – | stable at temperatures below 60 °C | 75 | slightly higher signal; also recorded: strong binding signals | –
5 | B5 | slightly above background levels | reduced to background levels | low to mid micromolar range | strong binding signals | – | – | – | – | reduced to that of the negative control ZZ(−)
